From paper PMC8461720 (Journal of Parkinson's Disease, 2021)
Read-outs that look alike come from different tables or passages of the source.

Key:
[1] = tested on: wild-type midbrain dopamine neurons (TH-ir cells); test: Survival assay for primary dopamine neurons, wild-type; type: cell-based, mouse; details: GDNF 10 ng/ml ([…]), 5 days in vitro; vehicle 226.3±6.6
[2] = tested on: 6-OHDA lesioned rats; test: TH-ir cell bodies in the SNpc, CNN algorithm; type: in vivo, rat; details: GDNF 3 μg/24 h
[3] = tested on: AKT; type: cell-based, murine; details: GDNF 200 ng/ml; vehicle 0.91±0.20
[4] = tested on: midbrain dopamine neurons exposed to MPP+; test: Survival of MPP+-challenged dopamine neurons; type: cell-based, mouse; details: GDNF 10 ng/ml (≃[…]) with MPP+ 2 μM, 48 hours; vehicle 267.7±20.4
[5] = tested on: 6-OHDA lesioned rats; test: Optical density of DAT-ir fibers in the dorsal striatum; details: GDNF 3 μg/24 h
[6] = tested on: ERK; type: cell-based, murine; details: GDNF 200 ng/ml; vehicle 0.56±0.13
[7] = tested on: 6-OHDA lesioned rats; test: TH-ir neurite number in the striatum; type: in vivo, rat; details: BT44 0.1 and 0.3 μg/24 h, GDNF 3 μg/24 h; newly developed algorithm
[8] = tested on: 6-OHDA lesioned rats; test: Amphetamine-induced rotational assay, unilateral 6-OHDA lesion; type: in vivo, rat; details: GDNF 3 μg/24 h intrastriatal 14 days; 12 weeks post lesion
[9] = tested on: dopamine neurons; details: cited from earlier work
[10] = tested on: RET knockout midbrain dopamine neurons (TH-ir cells); test: Survival assay for primary dopamine neurons, RET knockout; type: cell-based, mouse; details: GDNF 10 ng/ml (≃[…]), 5th day in vitro
[11] = molecular target: GFRα1-RET (Homo sapiens, UniProt P07949); test: RET phosphorylation assay; type: cell-based; details: GDNF 200 ng/ml, 15 min; vehicle 0.66±0.22
[12] = tested on: 6-OHDA lesioned rats; test: Optical density of TH-ir fibers in the dorsal striatum; details: GDNF 3 μg/24 h; 12 weeks post lesion
[13] = tested on: 6-OHDA lesioned rats; test: DAT-ir cell bodies in the SNpc; type: in vivo, rat; details: GDNF 3 μg/24 h
[14] = molecular target: RET (Homo sapiens, UniProt P07949); test: RET phosphorylation assay, GFP transfected MG87RET cells; type: cell-based; details: GDNF in the absence of GFRα1
[15] = molecular target: TrkB (Homo sapiens, UniProt Q16620); test: Luciferase reporter assay in MG87 cells expressing TrkB; type: cell-based; details: BDNF 100 ng/ml, overnight
[16] = tested on: AKT; type: cell-based, murine; details: NRTN 200 ng/ml; vehicle 0.63±0.02
[17] = tested on: ERK; type: cell-based, murine; details: NRTN 200 ng/ml; vehicle 0.18±0.04
[18] = molecular target: GFRα2-RET (Homo sapiens, UniProt P07949); test: RET phosphorylation assay, GFRα2 transfected MG87RET cells; type: cell-based; details: NRTN 200 ng/ml, 15 min; vehicle 0.86±0.15
GFRα2-RET, sequence (P07949 29-1114): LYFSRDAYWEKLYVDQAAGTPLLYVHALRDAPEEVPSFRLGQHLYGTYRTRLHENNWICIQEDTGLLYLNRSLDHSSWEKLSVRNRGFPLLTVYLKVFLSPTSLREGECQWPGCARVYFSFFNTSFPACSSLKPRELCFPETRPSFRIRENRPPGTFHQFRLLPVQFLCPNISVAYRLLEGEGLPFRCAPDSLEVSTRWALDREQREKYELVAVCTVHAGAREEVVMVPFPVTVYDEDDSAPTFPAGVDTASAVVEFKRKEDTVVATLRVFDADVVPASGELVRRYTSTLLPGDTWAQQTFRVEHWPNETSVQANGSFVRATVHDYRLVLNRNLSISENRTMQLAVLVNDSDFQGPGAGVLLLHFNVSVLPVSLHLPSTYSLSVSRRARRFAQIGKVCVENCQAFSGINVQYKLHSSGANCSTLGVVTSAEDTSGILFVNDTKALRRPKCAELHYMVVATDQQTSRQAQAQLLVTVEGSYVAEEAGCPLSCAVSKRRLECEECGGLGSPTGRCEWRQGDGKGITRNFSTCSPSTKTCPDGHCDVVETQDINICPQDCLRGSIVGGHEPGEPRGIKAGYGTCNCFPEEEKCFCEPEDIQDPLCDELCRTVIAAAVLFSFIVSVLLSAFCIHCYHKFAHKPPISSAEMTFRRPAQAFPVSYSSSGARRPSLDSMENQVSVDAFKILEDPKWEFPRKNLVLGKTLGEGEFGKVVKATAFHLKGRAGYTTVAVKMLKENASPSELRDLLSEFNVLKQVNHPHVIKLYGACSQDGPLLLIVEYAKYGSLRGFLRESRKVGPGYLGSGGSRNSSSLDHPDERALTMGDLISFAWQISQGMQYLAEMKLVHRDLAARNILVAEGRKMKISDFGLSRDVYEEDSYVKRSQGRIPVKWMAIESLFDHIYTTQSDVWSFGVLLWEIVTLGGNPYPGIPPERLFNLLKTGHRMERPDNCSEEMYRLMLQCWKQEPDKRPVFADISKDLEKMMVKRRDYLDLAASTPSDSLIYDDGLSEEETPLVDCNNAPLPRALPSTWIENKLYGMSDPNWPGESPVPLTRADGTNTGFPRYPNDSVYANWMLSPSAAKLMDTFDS

TrkB, sequence (Q16620 32-822, species assumed): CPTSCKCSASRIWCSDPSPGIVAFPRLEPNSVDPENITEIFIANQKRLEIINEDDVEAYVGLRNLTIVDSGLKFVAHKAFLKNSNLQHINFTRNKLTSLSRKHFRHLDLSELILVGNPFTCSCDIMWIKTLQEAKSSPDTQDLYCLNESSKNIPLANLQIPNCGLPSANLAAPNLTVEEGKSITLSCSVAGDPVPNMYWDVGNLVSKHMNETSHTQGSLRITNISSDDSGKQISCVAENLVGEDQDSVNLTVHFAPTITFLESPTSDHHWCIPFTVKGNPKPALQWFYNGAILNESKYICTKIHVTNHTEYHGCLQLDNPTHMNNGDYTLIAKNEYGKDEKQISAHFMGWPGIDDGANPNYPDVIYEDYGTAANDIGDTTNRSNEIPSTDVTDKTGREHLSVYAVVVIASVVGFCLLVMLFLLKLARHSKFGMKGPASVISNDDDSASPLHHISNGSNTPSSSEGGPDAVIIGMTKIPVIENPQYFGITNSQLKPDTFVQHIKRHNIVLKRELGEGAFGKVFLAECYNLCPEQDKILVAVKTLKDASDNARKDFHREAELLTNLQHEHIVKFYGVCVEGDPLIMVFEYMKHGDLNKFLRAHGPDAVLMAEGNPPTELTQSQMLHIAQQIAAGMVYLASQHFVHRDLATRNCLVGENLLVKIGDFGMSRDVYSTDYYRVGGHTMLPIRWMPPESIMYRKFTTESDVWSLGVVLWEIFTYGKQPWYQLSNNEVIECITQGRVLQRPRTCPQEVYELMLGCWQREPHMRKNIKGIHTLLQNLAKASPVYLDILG
GFRα1-RET, sequence (P07949 29-1114): as the sequence (P07949 29-1114) above
GFRα1-RET, sequence (P56159 25-429 partner limits assumed): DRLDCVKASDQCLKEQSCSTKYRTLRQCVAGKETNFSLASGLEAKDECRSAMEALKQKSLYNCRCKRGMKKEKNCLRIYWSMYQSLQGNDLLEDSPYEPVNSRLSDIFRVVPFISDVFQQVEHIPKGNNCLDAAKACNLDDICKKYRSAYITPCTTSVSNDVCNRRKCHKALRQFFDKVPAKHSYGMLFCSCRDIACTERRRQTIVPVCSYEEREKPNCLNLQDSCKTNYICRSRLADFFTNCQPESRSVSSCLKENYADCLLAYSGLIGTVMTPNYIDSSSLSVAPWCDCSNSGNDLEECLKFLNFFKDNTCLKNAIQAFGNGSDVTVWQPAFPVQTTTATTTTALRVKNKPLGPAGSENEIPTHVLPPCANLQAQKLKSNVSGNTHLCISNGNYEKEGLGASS
RET, sequence (P07949 29-1114): as the sequence (P07949 29-1114) above

B1: GDNF: Human recombinant glial cell line-derived neurotrophic factor (protein, UniProt P39905 78-211, looked up)
Glial cell line-derived …: SPDKQMAVLPRRERNRQAAAANPENSRGKGRRGQRGKNRGCVLTAIHLNVTDLGLGYETKEELIFRYCSGSCDAAETTYDKILKNLSRNRRLVSDKVGQACCRPIAFDDDLSFLDDNLVYHILRKHSAKRCGCI
number of TH-ir cells [1]: 384.0±35.2
number of TH-ir cell bodies relative to PBS [2]: 2.5 times
number of TH-ir cell bodies relative to PG [2]: 2.3 times
number of TH-ir cell bodies in the SNpc, Lesioned/Intact side (%) ([2]; 12 weeks post lesion, PBS 11.5±0.9, PG 12.6±0.9): 29.1±2.8 % of the intact side
level of AKT phosphorylation (pAKT normalized to GAPDH) [3]: 4.77±0.43
number of TH-ir neurons [4]: 333.0±12.6
DAT-ir fiber density relative to PBS [5]: 9.9 times
density of DAT-ir fibers in the striatum ([5]; 12 weeks post lesion): 9.9±1.7 % of the intact side
level of ERK phosphorylation (pERK normalized to GAPDH) [6]: 2.76±0.37
number of TH-ir fibers (neurite number) in the striatum [7]: No statistically significant differences
number of net ipsilateral turns (120 min) [8]: 149.1±47.9
GDNF concentration at which effects on neuronal survival are detected ([9]; ref 52): 1 ng/mL
GDNF concentration at which somewhat increase in survival is already detectable ([9]; ref 52): 0.1 ng/mL
GDNF concentration at which effects on neuronal survival are detected ([9]; ref 81): 5 ng/mL
survival promoting effect [10]: did not observe survival promoting effect
level of RET phosphorylation (pRET band normalized to RET) [11]: 2.59±0.33
TH-ir fiber density relative to PBS treated rats [12]: 2.6 times
density of TH-ir fibers in the striatum [12]: 15.8±1.6 % of the intact side
number of DAT-ir cell bodies relative to PBS [13]: 2.2 times
number of DAT-ir cell bodies in the SNpc ([13]; 12 weeks post lesion, PBS 9.5±1.4, PG 11.6±1.3): 20.7±2.9 % of the intact side
RET activation [14]: did not activate RET

B2: BDNF: brain-derived neurotrophic factor (protein, UniProt P23560 19-247, looked up)
Neurotrophic factor BDNF …: APMKEANIRGQGGLAYPGVRTHGTLESVNGPKAGSRGLTSLADTFEHVIEELLDEDQKVRPNEENNKDADLYTSRVMLSSQVPLEPPLLFLLEEYKNYLDAANMSMRVRRHSDPARRGELSVCDSISEWVTAADKKTAVDMSGGTVTVLEKVPVSKGQLKQYFYETKCNPMGYTKEGCRGIDKRHWNSQCRTTQSYVRALTMDSKKRIGWRFIRIDTSCVCTLTIKRGR
luciferase activity in reporter cells expressing TrkB [15]: increased the luciferase activity

B3: NRTN: human recombinant neurturin (protein, UniProt Q99748 96-197, looked up)
Neurturin: ARLGARPCGLRELEVRVSELGLGYASDETVLFRYCAGACEAAARVYDLGLRRLRQRRRLRRERVRAQPCCRPTAYEDEVSFLDAHSRYHTVHELSARECACV
level of AKT phosphorylation (pAKT normalized to GAPDH) [16]: 1.72±0.13
level of ERK phosphorylation (pERK normalized to GAPDH) [17]: 1.14±0.15
level of RET phosphorylation (pRET band normalized to RET) [18]: 3.34±0.41
